Data reported in US6210929A, “Fusion protein comprising a furin derivative or a derivative of a furin analogue and a heterologous sequence” (Baxter Aktiengesellschaft, priority 1995, dated 2001).

B1: r-furinΔTM-His: furin with transmembrane and cytoplasmatic part (amino acids 708 to 794) deleted, six histidine residues appended after amino acid 707; SEQ.ID.NO. 9 (protein)
chain: MELRPWLLWVVAATGTLVLLAADAQGQKVFTNTWAVRIPGGPAVANSVARKHGFLNLGQIFGDYYHFWHRGVTKRSLSPHRPRHSRLQREPQVQWLEQQVAKRRTKRDVYQEPTDPKFPQQWYLSGVTQRDLNVKAAWAQGYTGHGIVVSILDDGIEKNHPDLAGNYDPGASFDVNDQDPDPQPRYTQMNDNRHGTRCAGEVAAVANNGVCGVGVAYNARIGGVRMLDGEVTDAVEARSLGLNPNHIHIYSASWGPEDDGKTVDGPARLAEEAFFRGVSQGRGGLGSIFVWASGNGGREHDSCNCDGYTNSIYTLSISSATQFGNVPWYSEACSSTLATTYSSGNQNEKQIVTTDLRQKCTESHTGTSASAPLAAGIIALTLEANKNLTWRDMQHLVVQTSKPAHLNANDWATNGVGRKVSHSYGYGLLDAGAMVALAQNWTTVAPQRKCIIDILTEPKDIGKRLEVRKTVTACLGEPNHITRLEHAQARLTLSYNRRGDLAIHLVSPMGTRSTLLAARPHDYSADGFNDWAFMTTHSWDEDPSGEWVLEIENTSEANNYGTLTKFTLVLYGTAPEGLPVPPESSGCKTLTSSQACVVCEEGFSLHQKSCVQHCPPGFAPQVLDTHYSTENDVETIRASVCAPCHASCATCQGPALTDCLSCPSHASLDPVEQTCSRQSQSSRESPPQQQPPRLPPEVEAGQRLRAGHHHHHH
modifications: His6 tag
B2: CHO-r-furinΔCys-spacer-His: r-furinΔCys (to amino acid 585) with spacer Ala-Ala-Gly-Gly-Ala-Ala and six histidine residues; SEQ.ID.NO. 21 (protein)
chain: MELRPWLLWVVAATGTLVLLAADAQGQKVFTNTWAVRIPGGPAVANSVARKHGFLNLGQIFGDYYHFWHRGVTKRSLSPHRPRHSRLQREPQVQWLEQQVAKRRTKRDVYQEPTDPKFPQQWYLSGVTQRDLNVKAAWAQGYTGHGIVVSILDDGIEKNHPDLAGNYDPGASFDVNDQDPDPQPRYTQMNDNRHGTRCAGEVAAVANNGVCGVGVAYNARIGGVRMLDGEVTDAVEARSLGLNPNHIHIYSASWGPEDDGKTVDGPARLAEEAFFRGVSQGRGGLGSIFVWASGNGGREHDSCNCDGYTNSIYTLSISSATQFGNVPWYSEACSSTLATTYSSGNQNEKQIVTTDLRQKCTESHTGTSASAPLAAGIIALTLEANKNLTWRDMQHLVVQTSKPAHLNANDWATNGVGRKVSHSYGYGLLDAGAMVALAQNWTTVAPQRKCIIDILTEPKDIGKRLEVRKTVTACLGEPNHITRLEHAQARLTLSYNRRGDLAIHLVSPMGTRSTLLAARPHDYSADGFNDWAFMTTHSWDEDPSGEWVLEIENTSEANNYGTLTKFTLVLYGTAPEGLPVPPESSAAGGAAHHHHHH
modifications: spacer and His6 tag
notes: r-furinΔCys (to amino acid 585) with spacer Ala-Ala-Gly-Gly-Ala-Ala and six histidine residues; 21

Legend:
pro-rvWF = experiment: In vitro cleavage of pro-rvWF by r-furin or fusion protein, Western blot analysis; format: biochemical, human; conditions: for in vitro processing of pro-rvWF in mixed supernatants: CHO-rvWF/r-furin and CHO-rvWF supernatants 1:1, 37° C.
Description: CHO-rvWF, CHO-rvWF/r-furin, CHO-rvWF and CHO (at a ration of 1:1), as well as CHO-rvWF and CHO-rvWF/r-furin (at a ration of 1:1) were mixed accordingly and incubated at 37° C.
Aliquots of the reaction formulations were tested for processed vWF by means of Western blot analysis immediately before incubation and after mixing of the cell culture supernatants, respectively; further aliquots were taken at time intervals of 24 hours each and assayed.
For this, 20 ml of serum-free cell culture supernatant of CHO-rvWF cells, adjusted to 2 mM imidazole, were passed over the column. […] Samples of the cell culture supernatant which were not subjected to a protease treatment served as the controls.
The negative control, an unmanipulated CHO cell culture supernatant (without r-furinΔCys-spacer-10xHis) was processed in an analogous manner on the Ni^2+ -NTA matrix.
Aliquots of the reaction mixtures were taken at the beginning of the test as well as at various points of time and frozen.
The Fractogel EMD® tentacle gel was loaded with Ni^2+ ions according to the manufacturer's instructions and equilibrated with fresh serum-free cell culture medium. Subsequently, the column was loaded with serum-free CHO-r-furinΔCys-spacer-10xHis supernatant. Washing steps were effected by serum-free cell culture medium, containing increasing imidazol concentrations up to 40 mM. Subsequently, the pro-protein substrate was guided over the column as serum-free CHO supernatant.

Boc-Arg-Val-Arg-Arg-AMC = experiment: AMC peptide substrate test (fluorogenic substrate test) of furin or fusion protein activity; format: biochemical; conditions: for Intensity of the fluorescent emission at 438 nm: supernatants of permanent CHO cell clones, 2 hours of incubation, 30° C.
Description: By the action of furin, AMC (7-amino-4-methyl coumarin) is cleaved from the substrate. […] The fluorescent spectroscopic detection of the furin or fusion protein activity was effected at 30° C. in stirred quartz cells in a test volume of 2 ml. 1.7 ml of 100 mM HEPES buffer (pH 7.4, 1 mM CaCl2 and 1 mM 2-mercaptoethanol) were mixed with 0.1 ml of a substrate solution (final substrate concentration in the test: 0.1 mM) and 0.2 ml of the sample. The fluorescence was excited at a wave length of 380 nm. After 2 hours of incubation, the fluorescent emission was measured at 438 nm (Table 1).
The supernatants of various permanent CHO-r-furinΔTM-His cell clones and, as the controls, of CHO-rvWF/r-furin cells and CHO cells were subjected to the AMC peptide substrate test. The intensity of the fluorescent emission at 438 nm reflects the activity.
The activity of CHO-r-furinΔTM-His cells from cell culture supernatants before their binding to the column matrix, the individual washing fractions as well as the eluate were determined by means of AMC peptide substrate test.
The influence of imidazole on the furin activity was determined.
For this, 1 ml of Ni^2 +-NTA matrix (Quiagen), equilibrated in serum-free cell culture medium was loaded at 4° C. with 10 ml of imidazole-free CHO-r-furinΔCys-spacer-10xHis cell culture supernatant, and, as the negative control, with conditioned medium of non-manipulated CHO cells, respectively. Then the matrix was washed three times at room temperature with serum-free cell culture medium, and subsequently the fluorogenic substrate was contacted at 30° C. with immobilized r-furinΔCys-spacer-10xHis. As the positive control, CHO-r-furinΔCys-spacer-10xHis cell culture supernatant was tested for its ability to react fluorogenic substrate in solution.

pro-vWF = experiment: Co-expression of pro-vWF and r-furin in CHO cells, Western blot of cell culture supernatants; format: cell-based, human
Description: The expression plasmid for rvWF, phAct-vWF (FIG. 1), was co-transfected with the selection marker plasmid pSV-rdhfr (FIG. 1) in dhfr-deficient CHO cells, the efficiently pro-rvWF-expressing clone CHO-rvWF was selected under selection conditions, and this clone was sub-cloned to stability (Fischer et al., 1994. Febs Lett. 351:345-349). For a further analysis and for rvWF expression and function studies, the cells were at first washed with PBS several times, and subsequently, unless indicated otherwise, incubated in selection medium without serum, with a regular 24 hour medium exchange.
Approximately 40% of the rvWF secreted into the cell supernatant of CHO-rvWF was unprocessed (FIG. 2 II A). To increase the efficiency of the propeptide cleavage, the r-furin expression vector pSV-r-furink in the following was co-transfected with the selection marker plasmid pUCSV-neo into the CHO-rvWF cell clone. Under selection conditions (500 μg G418/ml), clones were identified which express r-furin in addition to rvWF (CHO-rvWF/r-furin; FIGS. 2 I A, B).
The detection of rvWF in the cell culture supernatant was effected by means of Western blot analysis (FIGS. 2 I A and II A). For this, 10 μl of reduced cell culture supernatant were separated by means of SDS-PAGE (Lammli, Nature 227:680-685, 1970), and subsequently the proteins were transferred to nitrocellulose membranes by means of the BioRad Mini Trans-Blot System (BioRad Laboratories, Richmond, Calif., USA). The Protoblot-System from Promega (Madison, Wis., USA) was used to visualize rvWF secreted into the cell culture supernatant. Rabbit anti-vWF serum (Order No. A 082) from Dakopatts (Glostrup, Denmark) was used as the antibody for vWF binding.
The detection of r-furin in the cell culture supernatant was also effected by means of Western blot analysis (FIGS. 2 I B and II B). r-Furin was visualized by using the anti-h-furin murine monoclonal antibody MON 148 (van Duijnhoven et al., Hybridoma 11: 71-86, 1992) and, as the second antibody, anti-murine IgG alkaline phosphatase conjugated goat serum (Sigma A 4656).

rFX = experiment: FX activity by FX-Coatest-Kit (RVV activation, chromogenic substrate S-2337); format: biochemical, human
Description: For this, 50 μl of each supernatant were admixed with 50 μl of FX-deficient human plasma, and according to the protocol of the producer, rFX was reacted to rFXa with snake venom (RVV) in the presence of CaCl2 ; rFXa subsequently hydrolyses the chromogenic substrate (S-2337) and leads to the liberation of the yellow-coloured paranitroaniline. Since the amount of rFXa and the colour intensity are proportional to each other, the amount of rFX activatable to rFXa/ml cell culture supernatant can be determined with the help of a calibration straight line, interpolated from values of the plasma dilution series.

single-chain rFX = experiment: In vitro cleavage of the propeptide and processing of single-chain rFX, Western blot analysis; format: biochemical, human
Description: Aliquots each of the reactions were tested for processed rFX by means of Western blot analysis prior to incubation (t=0) and after various incubation periods (t=2, 4, 6 hours) (FIG. 10). The detection of rFX in the cell culture supernatants was effected by means of anti-human FX antiserum (FIG. 10A) and of a monoclonal antibody specific to the light chain of FX (FIG. 10B).

| Molecule | in vitro processing of pro-rvWF in mixed supernatants (pro-rvWF; 48 h and 96 h) | in vitro processing of pro-rvWF in mixed supernatants (pro-rvWF; after 24 hours) | Intensity of the fluorescent emission at 438 nm (Boc-Arg-Val-Arg-Arg-AMC) | processing of pro-vWF in co-expressing cells (pro-vWF; medium exchange every 8 hours, serum-free) | processing of pro-vWF in co-expressing cells (pro-vWF; serum-free 24 hour cell culture supernatants) | processing of pro-vWF in co-expressing cells (pro-vWF; serum-free 24 hour cell culture supernatants, listed as CHO rvWF/r-furin) | processing of rpro-vWF on immobilized fusion protein (pro-rvWF; Ni2+ column, CHO-rvWF supernatant with 2 mM imidazole passed over, column eluate) | INTENSITY (AMC peptide substrate test) (Boc-Arg-Val-Arg-Arg-AMC; 1st washing fraction of Ni2+-NTA column) | INTENSITY (AMC peptide substrate test) (Boc-Arg-Val-Arg-Arg-AMC; 2nd washing fraction of Ni2+-NTA column) | INTENSITY (AMC peptide substrate test) (Boc-Arg-Val-Arg-Arg-AMC; 3rd washing fraction of Ni2+-NTA column) | INTENSITY (AMC peptide substrate test) (Boc-Arg-Val-Arg-Arg-AMC; eluate from Ni2+-NTA matrix (buffer A containing 200 mM imidazole)) | INTENSITY (AMC peptide substrate test) (Boc-Arg-Val-Arg-Arg-AMC; roller supernatant before binding to the Ni2+-NTA matrix) | Activity (rFX; t = 6 hours, supernatants 1:1, 37° C.) | % Functional FX (rFX; t = 6 hours, from activity and ELISA antigen) | unspecific proteolytic activity (OD values) in mixture of CHO and CHO-r-furinΔTM-His supernatants (rFX; without rFX, % of the proteolytic activity) | processing of rFX (single-chain rFX) |
| --- | --- | --- | --- | --- | --- | --- | --- | --- | --- | --- | --- | --- | --- | --- | --- | --- |
| CHO-rvWF/r-furin: supernatant or cells of CHO clone co-expressing rvWF and complete recombinant human furin (r-furin), used as source of r-furin | completely processed vWF | only a slight portion of unprocessed pro-vWF | 444 | significant amounts of pro-rvWF | only the completely processed rvWF | completely processed |  |  |  |  |  |  |  |  |  |  |
| B1 |  |  | 2524 |  |  |  | only completely processed vWF | 340 | 280 | 121 | 2820 | 2664 | 344 mU/ml | 43% | less than 7% |  |
| B2 |  |  |  |  |  |  |  |  |  |  |  |  |  |  |  | demonstrated |
